Results from PMC9730451.

Biological target: MGAT1 (GnT1) (UniProt P26572)
Assay: co-immunoprecipitation, western blot
Conditions: reference: wild type, mitotic; sites S12

Q: Which “binding against the reference” value does the source give for “MAN1A1 (Golgi α-1,2-mannosidase IA) (from UniProt P33908) S12A, mitotic” here?
A: stronger
